Source: US20250042946A1, “Biological Production of Histidine-Rich Peptides” (Oakgrove Bio LLC, priority 2021, published 2025)

B1: IIP003: insoluble immunogenic peptide, 6 × SAP162 with 3 × Ova1, Structure 9, SEQ ID NO: 104 (protein)
chain: MASGGDPGGHQEYHYHYRQHGGGGSIINFEKLGGGGHQEYHYHYRQHGGDPGGHQEYHYHYRQHGGGGSIINFEKLGGGGHQEYHYHYRQHGGDPGGHQEYHYHYRQHGGGGSIINFEKLGGGGHQEYHYHYRQHGGDPGGPGPGP
B2: IFP-Api-006: split fusion, two copies of Apidaecin sandwiched between three copies of IFP100, SEQ ID NO: 100 (protein)
chain: MASGGGQQHYHYHQQGGGGQQHYHYHQQGGDPGGGNNRPVYIPQPRPPHPPRGGDPGGQQHYHYHQQGGGGQQHYHYHQQGGDPGGGNNRPVYIPQPRPPHPPRGGDPGGQQHYHYHQQGGGGQQHYHYHQQGGGPGPGPHHHHH
B3: IFP-Api-003: split fusion, Apidaecin sandwiched between two copies of IFP100, cLNK GGDPGG, SEQ ID NO: 98 (protein)
chain: MASGGGQQHYHYHQQGGGGQQHYHYHQQGGDPGGGNNRPVYIPQPRPPHPPRGGDPGGQQHYHYHQQGGGGQQHYHYHQQGGGPGPGPHHHHHH
B4: IIP015: insoluble immunogenic peptide, 6 × SAP234 with 3 × Ova1, Structure 9, SEQ ID NO: 114 (protein)
chain: MASGGDPGGQQHYHYHQQGGGGSIINFEKLGGGGQQHYHYHQQGGDPGGQQHYHYHQQGGGGSIINFEKLGGGGQQHYHYHQQGGDPGGQQHYHYHQQGGGGSIINFEKLGGGGQQHYHYHQQGGDPGGPGPGP
B5: IFP-Luna-006: split fusion, two copies of Lunasin sandwiched between three copies of IFP100, SEQ ID NO: 102 (protein)
chain: MASGGGQQHYHYHQQGGGGQQHYHYHQQGGDPGGSKWQHQQDSCRKQLQGVNLTPCEKHIMEKIQGRGDDDDDDDDDPGGGGQQHYHYHQQGGGGQQHYHYHQQGGDPGGSKWQHQQDSCRKQLQGVNLTPCEKHIMEKIQGRGDDDDDDDDDPGGGGQQHYHYHQQGGGGQQHYHYHQQGGGPGPGPHHHHHH
B6: IFP221: insolubility fusion partner of IFP221-Api; 3 × QQEYHYHYHYRQQ with GGGG spacers as in SEQ ID NO: 94 (protein)
chain: MASGGGQQEYHYHYHYRQQGGGGQQEYHYHYHYRQQGGGGQQEYHYHYHYRQQGGGDPGGGNNRPVYIPQPRPPHPRLGGGGDPGGGNNRPVYIPQPRPPHPRLGGGGDPGPGPHHHHHH

How the values were obtained:
[1] = type: physicochemical
Method: After the acid-based purification step at acidic pH described in Example 5, the neutralized insoluble fusion peptides were washed again with water to remove traces of buffer and were resuspended in 1 mL of 10 mM HCl pH 2. The precipitates resolubilized immediately thus highlighting the rapid, reversible and pH-controllable properties of the peptide fusions to IFPs The tubes containing the solubilized fusion peptides were incubated at 80° C. for 4 hours to allow the cleavage of the Asp-Pro acid-labile peptide bond in the linker connecting the IFP and the POI. After four hours at 80° C., the solutions were neutralized back to a pH comprised between 6.5 and 8.0 by addition of 60 μL of 500 mM Tris Base Tris per mL of pH 2 peptide solution. For most fusions, the neutralization was accompanied by the immediate formation of precipitates. When only a light precipitate was observed, the buffer was adjusted to neutrality by careful addition of HCl or of buffer base. The neutralized fractions were placed at −20° C. for 20 min to enhance precipitation, and then subsequently thawed and centrifuged at 20,000×g for 5 min. The supernatants were transferred to a new tube and the pellets resuspended in 1 ml of water. Aliquots of soluble and insoluble fractions were analyzed by PAGE.

[2] = Soluble versus insoluble fraction of E. coli cell extracts, SDS-PAGE; type: physicochemical; settings: cell extract in 25 mM Tris 50 mM NaCl pH 7.5, centrifugation 20,000×g
Method: To determine the soluble versus insoluble cell contents, cells from each of the 3 mL cultures were harvested by centrifugation and the pellet resuspended in 1 ml of 25 mM Tris 50 mM NaCl PH 7.5 buffer. The cell suspensions were transferred in 2 mL screw cap tubes containing 0.5 mL of ZrO2/SiO4 0.1 mm beads (Research Product International, Mount Prospect, IL) and disrupted in a FastPrep-24™ bead beater (MP Bio Irvine, CA) for 1 min at 5 m/s. After disruption, the cell extracts were transferred to new microfuge tubes. The soluble and insoluble fractions were then separated by centrifugation at 20,000×g for 5 min. The supernatants containing the soluble proteins were transferred to new tubes and the pellets containing the inclusion bodies were resuspended in the same volume of Tris-NaCl buffer.
Ten μL aliquots of the soluble fraction and of the particulate fraction are analyzed by SDS-PAGE using precast NuPAGE™ Bis-Tris 12% polyacrylamide gels (Thermo Scientific) as indicated by the manufacturer. After electrophoresis, the proteins and peptides were visualized by staining with GelCode™ Blue Safe Protein Coomassie Stain (Thermo Scientific).

[3] = type: physicochemical; remark: listed apart in the source
Method: After 15 min at pH 2, the acidified supernatant fraction were neutralized by addition of 40 μL 500 mM Tris base or 60 μL of Bis-Tris base per mL of pH 2 fraction to reach a pH comprised between 6.5 and 8.0. For most fusions, the neutralization was accompanied by the immediate formation of a precipitate. When only a light precipitate was observed, the buffer was adjusted to neutrality by addition of HCl or of buffer base. The neutralized fractions were placed at −20° C. for 20 min and were subsequently thawed. The neutralized fractions were then centrifuged at 20,000×g for 5 min. Their supernatant was discarded and the pellets containing the insoluble fusion peptides resuspended in 1 ml of water.

[4] = type: physicochemical; settings: pH 2
Method: To evaluate the useful solubilization of the IFPs at acidic and alkaline pH (from pH 2 to pH 12), the insoluble fractions of cell extracts expressing selected IFPs were produced as described in Example 2. They were pelleted by centrifugation for 5 min at 20,000×g and washed with water several times to remove the buffer. The washed pellets were resuspended in 10 mM HCl pH 2 or in 10 mM NaOH pH 12. Suspensions were mixed vigorously and allowed to stand at room temperature for 15 min at which time they were centrifuged again for 5 min at 20,000×g. The solubilization of the IFPs in either acidic (pH 2) or alkaline (pH 12) conditions was assessed by PAGE analysis of an aliquot of the centrifugation supernatant.
Cells were harvested by centrifugation at 20,000×g, resuspended in 1 mL of 25 mM Tris […] pH 7.5 and disrupted with a bead beater as described in Example 2. Following cell disruption and centrifugation, the insoluble fractions were washed several times in deionized water to remove traces of buffer and then recovered by centrifugation. The fractions were resuspended in 1 mL of 10 mM HCl pH 2 with repeated vortexing over 15 min at room temperature. […] Aliquots of each fraction corresponding to a same initial volume of cell extracts were analyzed by SDS-PAGE.

Molecule | solubility at neutral pH after acid cleavage (partition supernatant / pellet) [1] | solubility of the polypeptide as expressed in E. coli [2] | re-insolubilization (precipitation) upon neutralization [3] | solubilization at acidic pH [4]
Apidaecin | recovered in the soluble fraction | – | – | –
IFP534: insolubility fusion partner, 4 × QQHYHYHQQ, GGGG linker, SEQ ID NO: 62 | remains in the insoluble fraction | – | – | –
Lunasin | recovered in the soluble fraction | – | – | –
B1 | – | produced insolubly | re-insolubilization | solubilization
B2 | – | expressed the split fusion insolubly | – | –
B3 | – | expressed the split fusion insolubly | – | –
B4 | – | produced insolubly | re-insolubilization | solubilization
B5 | – | expressed the split fusion insolubly | – | –
B6 | remains in the insoluble fraction | – | – | –
